From article PMC3490468
Values joined by “and” are separate entries in the source; they are usually repeats but may differ in a detail not shown here. Equal values may be shown once.

Assays:
[1] = target: truncated portal protein cn3 (E25-Q456) of bacteriophage CNPH82 (bacteriophage CNPH82); experiment: self-rotation function of X-ray diffraction data; crystal in space group C222(1), data to 4.2 A; MOLREP, resolution range 5-10 A, integration radius 87 A; structure not solved
[2] = target: truncated portal protein cn3 (E25-Q456) of bacteriophage CNPH82 (bacteriophage CNPH82); experiment: SEC-MALS; 60 ul of 0.5 mg/ml cn3 on a BioSep SEC-s3000 column; 20 mM Tris pH 7.5, 500 mM NaCl, 10 mM MgCl2; size of the oligomer in solution

## truncated portal protein cn3 (E25-Q456) of bacteriophage CNPH82 (domain or fragment)
[1]
  stoichiometry N (subunits per oligomer): 13
[2]
  stoichiometry N (subunits per oligomer): 12.9 and 13
